# Laboratory results from PMC9092470, “Understanding p300-transcription factor interactions using sequence variation and hybridization†” (RSC Chemical Biology, 2022).
# “And” between values parts separate entries of the source, which are not always exact repeats. Equal values may be shown once.
# B1: CITED2 216–269, chemically synthesized peptide (peptide, UniProt Q99967 216-269, looked up)
# peptide: Ac-NVIDTDFIDEEVLMSLVIEMGLDRIKELPELWLGQNEFDFMTDFVCKQQPSRVS-NH2
# notes: source: synthetic peptide (chemical synthesis, see ESI)
# B2: CITED2216-269 (synthetic) (peptide)
# peptide: Ac-NVIDTDFIDEEVLMSLVIEMGLDRIKELPELWLGQNEFDFMTDFVCKQQPSRVS-NH2
# notes: source: synthetic peptide
# B3: HIF-1α776-826 (synthetic) (peptide)
# peptide: Ac-SDLACRLLGQSMDESGLPQLTSYDCEVNAPIQGSRNLLQGEELLRALDQVN-NH2
# modifications: cysteine pairing not given here
# notes: source: synthetic peptide
# B4: HIF-1α 776–826, expressed peptide (GFP tag cleaved) (peptide)
# peptide: GPGSSDLACRLLGQSMDESGLPQLTSYDCEVNAPIQGSRNLLQGEELLRALDQVN
# notes: four residues (Gly-Pro-Gly-Ser) remaining from the PreScission protease cleavage; Free N-terminus; source: expressed as GFP fusion protein, tag cleaved with PreScission protease
# B5: CITED2 224–259, chemically synthesized peptide (peptide, UniProt Q99967 224-259, looked up)
# peptide: Ac-DEEVLMSLVIEMGLDRIKELPELWLGQNEFDFMTDF-NH2
# notes: as for B1
# B6: HIF-1α 786–826, expressed peptide (GFP tag cleaved) (peptide)
# peptide: GPGSSMDESGLPQLTSYDCEVNAPIQGSRNLLQGEELLRALDQVN
# notes: as for B4
# B7: CITIF, HIF-1α-CITED2 hybrid sequence, expressed peptide (GFP tag cleaved) (peptide)
# chain: GPGSDEEVLMSLVIEMGLDRIKELPQLTSYDCEVNAPIQGSRNLLQGEELLRALDQVN
# Experiments:
# Conditions in all cases: both partners purified
# [1] = biological target: T1, p300 CH1 domain (residues 330–420) (UniProt Q09472 330-420); experiment: ITC; competition: CITED2 peptides titrated into the preformed p300/HIF-1α 776–826 complex (1.2–1.6 equivalents of HIF-1α); 40 mM sodium phosphate, pH 7.5, 100 mM NaCl, 1 mM DTT, 35 °C; competitive binding model; apparent
# T1 construct: p300 CH1 domain, residues 330–420; The cleavage of GST is said for the anisotropy control; also called p300 with the GST tag cleaved; source: recombinantly expressed as a fusion protein with GST, GST tag cleaved
# [2] = biological target: T1, p300 CH1 domain (residues 330–420); experiment: ITC; peptide in the syringe, p300 in the cell (Fig. 4: 5 μM protein, 60 μM ligand); 40 mM sodium phosphate, pH 7.5, 100 mM NaCl, 1 mM DTT, 35 °C; single-site model, fixed 1:1 stoichiometry
# [3] = biological target: T2, p300 CH1 domain (residues 330-420), GST removed with thrombin (human, UniProt Q09472 330-420); experiment: ITC; global fit in SEDPHAT of three titrations (HIF-1α776-826 to p300, CITED2 peptide to p300, CITED2 peptide to preformed p300/HIF-1α776-826) to a model with a ternary CITED2-HIF-1α-p300 complex; 40 mM sodium phosphate, pH 7.5, 100 mM NaCl, 1 mM DTT; 35 °C
# T2 construct: human p300, CH1 domain (zinc finger, TAZ type 1), residues 330-420; Thrombin-cleaved construct (expected m/z 10603.30), used on the Microcal VP ITC with synthetic partners (D1:p17); source: E. coli BL21 pLysS (pGEX-4T-1), glutathione beads, on-column thrombin cleavage, SEC
# [4] = biological target: T1, p300 CH1 domain (residues 330–420); experiment: ITC; expressed peptides (GFP tag cleaved) titrated to p300; conditions in Fig. S6 (ESI); fixed 1:1 stoichiometry
# T2 sequence (Q09472 330-420): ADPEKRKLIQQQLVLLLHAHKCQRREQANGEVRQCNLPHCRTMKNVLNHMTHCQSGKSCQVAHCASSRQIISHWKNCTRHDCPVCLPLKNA
# T1 sequence (Q09472 330-420): as above
binder,measurement,setting,value
B1,"KD,app (competition against the preformed p300/HIF-1α 776–826 complex)",[1],1.1 nM
same,Kd,[2],26.3 nM
same,dH,[2],-13.2 kcal/mol
Ac-DEEVLMSLVIEMGLDRIKELPELWLGQNEFDFMTDF-NH2 (source: synthetic peptide) [CITED2224-259 (synthetic)],Kd,[3],11.6 nM
B2,Kd,[3],26.9 nM
B3,Kd,[3],67 nM and 48.8 nM and 52.3 nM
B4,Kd,[4],82.4 nM
same,dH,[4],-22.2 kcal/mol
B5,"KD,app (competition against the preformed p300/HIF-1α 776–826 complex)",[1],12.2 nM
same,Kd,[2],9.1 nM
same,dH,[2],-12.4 kcal/mol
B6,dH,[4],-32.7 kcal/mol
B7,dH,[4],-18.3 kcal/mol
